{"source": "patent US20240024851A1", "molecules": {"B1": {"name": "anti-AAV-VHH antibody VHH1 (VHH)", "VHH": "QVQLVESGGGLVQAGGSLRLSCAASGRTFSSYAMGWFRQAPGKEREIVASISWNGGSTDYADSVKGRFTISRDNAKNTVYLQMNSLKPEDTAVYYCAADSTNWVFYDYWGQGTQVTVSS"}}, "key": {"[1]": {"biological_target": "adeno-associated virus type 2 (AAV2) particles (adeno-associated virus type 2) (UniProt P03135)", "test": "affinity column (beads), AAV2 pre-treatment liquid, 0.2 mL/min, qPCR"}, "[2]": {"biological_target": "adeno-associated virus type 2 (AAV2) particles (adeno-associated virus type 2) (UniProt P03135)", "test": "affinity column (beads), AAV2 crude liquid, retention time 10 sec, qPCR"}, "[3]": {"biological_target": "adeno-associated virus type 2 (AAV2) particles (adeno-associated virus type 2) (UniProt P03135)", "test": "affinity column (beads), AAV2 crude liquid, 0.2 mL/min, qPCR"}, "[4]": {"biological_target": "adeno-associated virus type 2 (AAV2) particles (adeno-associated virus type 2) (UniProt P03135)", "test": "affinity column (beads), AAV2 crude liquid, retention time 5 sec, qPCR"}, "[5]": {"biological_target": "adeno-associated virus type 1 (AAV1) particles (adeno-associated virus type 1)", "test": "batch adsorption of AAV1 pre-treatment liquid to discs (ligand on nonwoven fabric 1), acid elution, qPCR"}}}
{"molecule": "POROS CaptureSelect AAVX (ligand of the commercial affinity resin, Thermo Scientific) (VHH)", "values": [{"measurement": "ratio of residual AAV to recovered AAV", "setting": "[1]", "result": 48.8, "unit": "%"}, {"measurement": "recovered AAV in elution step", "setting": "[1]", "result": "5.75e+11", "unit": "vg"}, {"measurement": "residual AAV in washing step", "setting": "[1]", "result": "2.8e+11", "unit": "vg"}, {"measurement": "leaked AAV to FT", "setting": "[2]", "result": "4.19e+10", "unit": "vg"}, {"measurement": "ratio of leaked AAV to recovered AAV", "setting": "[2]", "result": 5, "unit": "%"}, {"measurement": "ratio of residual AAV to recovered AAV", "setting": "[2]", "result": 17, "unit": "%"}, {"measurement": "recovered AAV in elution step", "setting": "[2]", "result": "8.66e+11", "unit": "vg"}, {"measurement": "residual AAV in washing step", "setting": "[2]", "result": "1.47e+11", "unit": "vg"}, {"measurement": "leaked AAV to FT", "setting": "[3]", "result": "5.97e+09", "unit": "vg"}, {"measurement": "ratio of leaked AAV to recovered AAV", "setting": "[3]", "result": 1, "unit": "%"}, {"measurement": "ratio of residual AAV to recovered AAV", "setting": "[3]", "result": 17, "unit": "%"}, {"measurement": "recovered AAV in elution step", "setting": "[3]", "result": "8.77e+11", "unit": "vg"}, {"measurement": "residual AAV in washing step", "setting": "[3]", "result": "1.49e+11", "unit": "vg"}, {"measurement": "leaked AAV to FT", "setting": "[4]", "result": "1.38e+11", "unit": "vg"}, {"measurement": "ratio of leaked AAV to recovered AAV", "setting": "[4]", "result": 19, "unit": "%"}, {"measurement": "ratio of residual AAV to recovered AAV", "setting": "[4]", "result": 22, "unit": "%"}, {"measurement": "recovered AAV in elution step", "setting": "[4]", "result": "7.42e+11", "unit": "vg"}, {"measurement": "residual AAV in washing step", "setting": "[4]", "result": "1.67e+11", "unit": "vg"}]}
{"molecule": "B1", "values": [{"measurement": "amount of the AAV1 adsorbed", "setting": "[5]", "result": "1.1e+13", "unit": "vg/mL-column"}]}
